We go through 95 substances from the Human Domainome abundance scans (Beltran et al. 2025).

± gives the uncertainty stated by the source.

This series is described as follows: abundance fitness (aPCA) (normalised: wild type 0, dead -1); higher = more abundant; growth selection in yeast, the domain comes from the species named. Conditions: Homo sapiens.
For the substance “Transcriptional activator Myb E150V, P10242”, the abundance fitness is -0.207 ± 0.061.
Then “Transcriptional activator Myb E150W, P10242”, with -0.208 ± 0.083.
Substance “Transcriptional activator Myb E151A, P10242” registered an abundance fitness of -0.597 ± 0.066.
The substance “Transcriptional activator Myb E151C, P10242” yielded an abundance fitness of -1.1 ± 0.21.
To “Transcriptional activator Myb E151D, P10242” belongs -0.348 ± 0.15.
Then “Transcriptional activator Myb E151F, P10242”, with -0.927 ± 0.19; and “Transcriptional activator Myb E151G, P10242”, with -0.815 ± 0.056.
“Transcriptional activator Myb E151H, P10242” showed an abundance fitness of -0.57 ± 0.13.
Then “Transcriptional activator Myb E151I, P10242”, with -0.49 ± 0.14.
As for “Transcriptional activator Myb E151L, P10242”, the abundance fitness was -0.482 ± 0.069.
To “Transcriptional activator Myb E151M, P10242” belongs -0.624 ± 0.12; to “Transcriptional activator Myb E151N, P10242”, -0.674 ± 0.12; to “Transcriptional activator Myb E151P, P10242”, -0.758 ± 0.15.
“Transcriptional activator Myb E151S, P10242” returned an abundance fitness of -0.73 ± 0.088.
To “Transcriptional activator Myb E151T, P10242” belongs -0.731 ± 0.12; to “Transcriptional activator Myb E151V, P10242”, -0.466 ± 0.074.
The substance “Transcriptional activator Myb E151W, P10242” yielded an abundance fitness of -0.835 ± 0.078.
Then “Transcriptional activator Myb E151Y, P10242”, with -1.12 ± 0.36; and “Transcriptional activator Myb E168A, P10242”, with -0.287 ± 0.093.
Then “Transcriptional activator Myb E168C, P10242”, with -0.464 ± 0.11; and “Transcriptional activator Myb E168D, P10242”, with -0.133 ± 0.09; and “Transcriptional activator Myb E168F, P10242”, with -0.574 ± 0.12.
In the case of “Transcriptional activator Myb E168G, P10242”, the abundance fitness is -0.668 ± 0.07.
Then “Transcriptional activator Myb E168H, P10242”, with -0.548 ± 0.36; and “Transcriptional activator Myb E168K, P10242”, with -0.279 ± 0.11; and “Transcriptional activator Myb E168L, P10242”, with -0.419 ± 0.069.
Then “Transcriptional activator Myb E168M, P10242”, with -0.533 ± 0.16.
Then “Transcriptional activator Myb E168N, P10242”, with -0.492 ± 0.17.
For the substance “Transcriptional activator Myb E168P, P10242”, the abundance fitness was -0.833 ± 0.13.
To “Transcriptional activator Myb E168Q, P10242” belongs -0.182 ± 0.13; to “Transcriptional activator Myb E168R, P10242”, -0.541 ± 0.067; to “Transcriptional activator Myb E168S, P10242”, -0.325 ± 0.084.
To “Transcriptional activator Myb E168T, P10242” belongs -0.573 ± 0.32; to “Transcriptional activator Myb E168V, P10242”, -0.61 ± 0.077; to “Transcriptional activator Myb E168W, P10242”, -0.79 ± 0.1.
Then “Transcriptional activator Myb E168Y, P10242”, with -0.657 ± 0.14; and “Transcriptional activator Myb E194A, P10242”, with -0.055 ± 0.086; and “Transcriptional activator Myb E194C, P10242”, with -0.226 ± 0.21.
In the case of “Transcriptional activator Myb E194D, P10242”, the abundance fitness was -0.001 ± 0.16.
To “Transcriptional activator Myb E194F, P10242” belongs -0.168 ± 0.27.
Then “Transcriptional activator Myb E194G, P10242”, with -0.135 ± 0.068.
To “Transcriptional activator Myb E194H, P10242” belongs -0.403 ± 0.49; to “Transcriptional activator Myb E194K, P10242”, -0.067 ± 0.13.
In the case of “Transcriptional activator Myb E194L, P10242”, the abundance fitness is -0.192 ± 0.088.
To “Transcriptional activator Myb E194M, P10242” belongs -0.229 ± 0.26; to “Transcriptional activator Myb E194N, P10242”, -0.316 ± 0.36.
Consider “Transcriptional activator Myb E194P, P10242”, for which the abundance fitness stood at 0.022 ± 0.21.
To “Transcriptional activator Myb E194Q, P10242” belongs -0.125 ± 0.13; to “Transcriptional activator Myb E194R, P10242”, -0.102 ± 0.089; to “Transcriptional activator Myb E194S, P10242”, -0.161 ± 0.1.
To “Transcriptional activator Myb E194T, P10242” belongs -0.001 ± 0.12; to “Transcriptional activator Myb E194V, P10242”, -0.037 ± 0.095; to “Transcriptional activator Myb E194W, P10242”, -0.152 ± 0.13.
Then “Transcriptional activator Myb E194Y, P10242”, with -0.174 ± 0.24.
For the substance “Transcriptional activator Myb E196A, P10242”, the abundance fitness was -0.069 ± 0.079.
To “Transcriptional activator Myb E196C, P10242” belongs -0.13 ± 0.089.
To “Transcriptional activator Myb E196D, P10242” belongs -0.056 ± 0.11; to “Transcriptional activator Myb E196F, P10242”, -0.247 ± 0.15.
Then “Transcriptional activator Myb E196G, P10242”, with 0.007 ± 0.057.
On to “Transcriptional activator Myb E196H, P10242”, for which the abundance fitness was -0.196 ± 0.1.
Then “Transcriptional activator Myb E196I, P10242”, with -0.34 ± 0.12; and “Transcriptional activator Myb E196K, P10242”, with -0.064 ± 0.1.
Then “Transcriptional activator Myb E196L, P10242”, with -0.03 ± 0.072; and “Transcriptional activator Myb E196M, P10242”, with -0.084 ± 0.093; and “Transcriptional activator Myb E196N, P10242”, with -0.022 ± 0.089.
With “Transcriptional activator Myb E196P, P10242”, the abundance fitness was -0.114 ± 0.1.
To “Transcriptional activator Myb E196Q, P10242” belongs -0.032 ± 0.12; to “Transcriptional activator Myb E196R, P10242”, -0.092 ± 0.046.
To “Transcriptional activator Myb E196S, P10242” belongs -0.052 ± 0.064; to “Transcriptional activator Myb E196T, P10242”, -0.044 ± 0.1; to “Transcriptional activator Myb E196V, P10242”, -0.121 ± 0.092.
To “Transcriptional activator Myb E196W, P10242” belongs -0.151 ± 0.067; to “Transcriptional activator Myb E196Y, P10242”, -0.306 ± 0.17; to “Transcriptional activator Myb E201A, P10242”, -0.094 ± 0.076.
Regarding “Transcriptional activator Myb E201C, P10242”, the abundance fitness is -0.314 ± 0.11.
Then “Transcriptional activator Myb E201F, P10242”, with -0.521 ± 0.35.
Then “Transcriptional activator Myb E201G, P10242”, with -0.076 ± 0.054; and “Transcriptional activator Myb E201H, P10242”, with -0.034 ± 0.15; and “Transcriptional activator Myb E201I, P10242”, with -0.156 ± 0.2.
As for “Transcriptional activator Myb E201K, P10242”, the abundance fitness is -0.272 ± 0.16.
Turning to “Transcriptional activator Myb E201L, P10242”, the abundance fitness is -0.158 ± 0.097.
Then “Transcriptional activator Myb E201M, P10242”, with -0.078 ± 0.24.
To “Transcriptional activator Myb E201N, P10242” belongs 0.095 ± 0.14; to “Transcriptional activator Myb E201P, P10242”, -0.221 ± 0.13; to “Transcriptional activator Myb E201Q, P10242”, -0.061 ± 0.14.
To “Transcriptional activator Myb E201R, P10242” belongs -0.12 ± 0.066; to “Transcriptional activator Myb E201S, P10242”, -0.105 ± 0.1.
Turning to “Transcriptional activator Myb E201V, P10242”, the abundance fitness is -0.183 ± 0.078.
To “Transcriptional activator Myb E201W, P10242” belongs -0.204 ± 0.08; to “Transcriptional activator Myb E201Y, P10242”, -0.377 ± 0.14; to “Transcriptional activator Myb G163A, P10242”, -0.329 ± 0.069.
“Transcriptional activator Myb G163C, P10242” had an abundance fitness of -0.468 ± 0.093.
To “Transcriptional activator Myb G163D, P10242” belongs -0.356 ± 0.086.
Then “Transcriptional activator Myb G163E, P10242”, with -0.25 ± 0.088; and “Transcriptional activator Myb G163F, P10242”, with -0.89 ± 0.16.
